Target: T1, pKal (Homo sapiens, UniProt P03952)
T1 construct: two disulfide linked polypeptides; a heavy chain of approximately 52 kDa and a catalytic domain of approximately 34 kDa; host or cells: human plasma
Test: Fab fragments (small scale) tested for inhibition against human pKal in an in vitro protease cleavage assay
Assay type: biochemical
Conditions: Table 9
Experimental: By DNA sequencing, we recovered 61 of the possible 80 antibodies (Table 9). These antibodies were produced as Fab fragments in small scale (˜20 μg) and tested for inhibition against human pKal in an in vitro protease cleavage assay using Pro-Phe-Arg-aminomethylcoumarin as the synthetic peptide substrate. […] Five antibodies were then expressed in 293T cells and purified by protein A sepharose chromatography. The antibodies were analyzed by SDS-PAGE to determine which of the inhibitory mutants are not cleaved by the host cell protease(s) (data not shown).

T1 sequence (P03952 391-638 limits assumed): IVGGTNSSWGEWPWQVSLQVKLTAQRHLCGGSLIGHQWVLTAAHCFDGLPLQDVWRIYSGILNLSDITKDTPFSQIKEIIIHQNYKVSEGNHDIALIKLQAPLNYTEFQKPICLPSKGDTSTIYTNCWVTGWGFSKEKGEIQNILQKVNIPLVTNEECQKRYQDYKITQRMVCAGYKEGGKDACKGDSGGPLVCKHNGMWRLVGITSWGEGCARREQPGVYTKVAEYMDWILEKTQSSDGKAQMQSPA
T1 sequence (P03952 20-390 partner limits assumed): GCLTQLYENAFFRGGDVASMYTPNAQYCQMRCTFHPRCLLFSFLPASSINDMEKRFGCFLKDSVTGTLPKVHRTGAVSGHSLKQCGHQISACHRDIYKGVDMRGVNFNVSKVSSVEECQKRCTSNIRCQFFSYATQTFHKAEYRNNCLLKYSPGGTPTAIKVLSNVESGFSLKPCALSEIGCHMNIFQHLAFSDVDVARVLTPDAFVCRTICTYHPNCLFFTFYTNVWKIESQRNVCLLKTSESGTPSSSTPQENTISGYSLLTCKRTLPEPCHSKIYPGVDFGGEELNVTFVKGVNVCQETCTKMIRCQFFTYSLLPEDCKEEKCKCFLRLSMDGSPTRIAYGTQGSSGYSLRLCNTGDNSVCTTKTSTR

Molecule	Inhibit as a Fab?
X68-F05: single point mutation of M142-H08 (P3); HV-CDR3 GGLLLMFRELKSNYFDY (antibody, V domains shown) VL: QDIQMTQSPSSLSAFVGDRVTITCRASQPIDNYLNWYHQKPGKAPKLLIYAASRLQSGVPSRLSGSGFGTDFTLTISSLQPEDFGNYYCQQSYTVPYTFGGGTKVEIR VH: EVQLLESGGGLVQPGGSLRLSCAASGFTFSAYSMIWVRQAPGKGLEWVSYIRPSGGRTTYADSVKGRFTISRDNSKNTLYLQMNSLRAEDTAVYYCARGGLLLMFRELKSNYFDYWGQGTLVTVSSASTKGPSVFPLAPSSKS	No
X68-F12: single point mutation of M142-H08 (P3); HV-CDR3 GGLLLTFRELKSNYFDY (antibody, V domains shown) VL: QDIQMTQSPSSLSAFVGDRVTITCRASQPIDNYLNWYHQKPGKAPKLLIYAASRLQSGVPSRLSGSGFGTDFTLTISSLQPEDFGNYYCQQSYTVPYTFGGGTKVEIR VH: EVQLLESGGGLVQPGGSLRLSCAASGFTFSAYSMIWVRQAPGKGLEWVSYIRPSGGRTTYADSVKGRFTISRDNSKNTLYLQMNSLRAEDTAVYYCARGGLLLTFRELKSNYFDYWGQGTLVTVSSASTKGPSVFPLAPSSKS	No
X68-D10: single point mutation of M142-H08 (P3); HV-CDR3 GGLLLPFRELKSNYFDY (antibody, V domains shown) VL: QDIQMTQSPSSLSAFVGDRVTITCRASQPIDNYLNWYHQKPGKAPKLLIYAASRLQSGVPSRLSGSGFGTDFTLTISSLQPEDFGNYYCQQSYTVPYTFGGGTKVEIR VH: EVQLLESGGGLVQPGGSLRLSCAASGFTFSAYSMIWVRQAPGKGLEWVSYIRPSGGRTTYADSVKGRFTISRDNSKNTLYLQMNSLRAEDTAVYYCARGGLLLPFRELKSNYFDYWGQGTLVTVSSASTKGPSVFPLAPSSKS	No
X67-G05: single point mutation of M142-H08 (P2); HV-CDR3 GGLLLWRRELKSNYFDY (antibody, V domains shown) VL: QDIQMTQSPSSLSAFVGDRVTITCRASQPIDNYLNWYHQKPGKAPKLLIYAASRLQSGVPSRLSGSGFGTDFTLTISSLQPEDFGNYYCQQSYTVPYTFGGGTKVEIR VH: EVQLLESGGGLVQPGGSLRLSCAASGFTFSAYSMIWVRQAPGKGLEWVSYIRPSGGRTTYADSVKGRFTISRDNSKNTLYLQMNSLRAEDTAVYYCARGGLLLWRRELKSNYFDYWGQGTLVTVSSASTKGPSVFPLAPSSKS	Yes
X67-B04: single point mutation of M142-H08 (P2); HV-CDR3 GGLLLWKRELKSNYFDY (antibody, V domains shown) VL: QDIQMTQSPSSLSAFVGDRVTITCRASQPIDNYLNWYHQKPGKAPKLLIYAASRLQSGVPSRLSGSGFGTDFTLTISSLQPEDFGNYYCQQSYTVPYTFGGGTKVEIR VH: EVQLLESGGGLVQPGGSLRLSCAASGFTFSAYSMIWVRQAPGKGLEWVSYIRPSGGRTTYADSVKGRFTISRDNSKNTLYLQMNSLRAEDTAVYYCARGGLLLWKRELKSNYFDYWGQGTLVTVSSASTKGPSVFPLAPSSKS	Yes
X67-B03: single point mutation of M142-H08 (P2); HV-CDR3 GGLLLWSRELKSNYFDY (antibody, V domains shown) VL: QDIQMTQSPSSLSAFVGDRVTITCRASQPIDNYLNWYHQKPGKAPKLLIYAASRLQSGVPSRLSGSGFGTDFTLTISSLQPEDFGNYYCQQSYTVPYTFGGGTKVEIR VH: EVQLLESGGGLVQPGGSLRLSCAASGFTFSAYSMIWVRQAPGKGLEWVSYIRPSGGRTTYADSVKGRFTISRDNSKNTLYLQMNSLRAEDTAVYYCARGGLLLWSRELKSNYFDYWGQGTLVTVSSASTKGPSVFPLAPSSKS	Yes
X68-F10: single point mutation of M142-H08 (P3); HV-CDR3 GGLLLQFRELKSNYFDY (antibody, V domains shown) VL: QDIQMTQSPSSLSAFVGDRVTITCRASQPIDNYLNWYHQKPGKAPKLLIYAASRLQSGVPSRLSGSGFGTDFTLTISSLQPEDFGNYYCQQSYTVPYTFGGGTKVEIR VH: EVQLLESGGGLVQPGGSLRLSCAASGFTFSAYSMIWVRQAPGKGLEWVSYIRPSGGRTTYADSVKGRFTISRDNSKNTLYLQMNSLRAEDTAVYYCARGGLLLQFRELKSNYFDYWGQGTLVTVSSASTKGPSVFPLAPSSKS	No
X67-E04: single point mutation of M142-H08 (P2); HV-CDR3 GGLLLWDRELKSNYFDY (antibody, V domains shown) VL: QDIQMTQSPSSLSAFVGDRVTITCRASQPIDNYLNWYHQKPGKAPKLLIYAASRLQSGVPSRLSGSGFGTDFTLTISSLQPEDFGNYYCQQSYTVPYTFGGGTKVEIR VH: EVQLLESGGGLVQPGGSLRLSCAASGFTFSAYSMIWVRQAPGKGLEWVSYIRPSGGRTTYADSVKGRFTISRDNSKNTLYLQMNSLRAEDTAVYYCARGGLLLWDRELKSNYFDYWGQGTLVTVSSASTKGPSVFPLAPSSKS	Yes
X68-G01: single point mutation of M142-H08 (P3); HV-CDR3 GGLLLRFRELKSNYFDY (antibody, V domains shown) VL: QDIQMTQSPSSLSAFVGDRVTITCRASQPIDNYLNWYHQKPGKAPKLLIYAASRLQSGVPSRLSGSGFGTDFTLTISSLQPEDFGNYYCQQSYTVPYTFGGGTKVEIR VH: EVQLLESGGGLVQPGGSLRLSCAASGFTFSAYSMIWVRQAPGKGLEWVSYIRPSGGRTTYADSVKGRFTISRDNSKNTLYLQMNSLRAEDTAVYYCARGGLLLRFRELKSNYFDYWGQGTLVTVSSASTKGPSVFPLAPSSKS	No
X67-C09: single point mutation of M142-H08 (P2); HV-CDR3 GGLLLWGRELKSNYFDY (antibody, V domains shown) VL: QDIQMTQSPSSLSAFVGDRVTITCRASQPIDNYLNWYHQKPGKAPKLLIYAASRLQSGVPSRLSGSGFGTDFTLTISSLQPEDFGNYYCQQSYTVPYTFGGGTKVEIR VH: EVQLLESGGGLVQPGGSLRLSCAASGFTFSAYSMIWVRQAPGKGLEWVSYIRPSGGRTTYADSVKGRFTISRDNSKNTLYLQMNSLRAEDTAVYYCARGGLLLWGRELKSNYFDYWGQGTLVTVSSASTKGPSVFPLAPSSKS	Yes
X68-H04: single point mutation of M142-H08 (P3); HV-CDR3 GGLLLVFRELKSNYFDY (antibody, V domains shown) VL: QDIQMTQSPSSLSAFVGDRVTITCRASQPIDNYLNWYHQKPGKAPKLLIYAASRLQSGVPSRLSGSGFGTDFTLTISSLQPEDFGNYYCQQSYTVPYTFGGGTKVEIR VH: EVQLLESGGGLVQPGGSLRLSCAASGFTFSAYSMIWVRQAPGKGLEWVSYIRPSGGRTTYADSVKGRFTISRDNSKNTLYLQMNSLRAEDTAVYYCARGGLLLVFRELKSNYFDYWGQGTLVTVSSASTKGPSVFPLAPSSKS	No
X67-G01: single point mutation of M142-H08 (P2); HV-CDR3 GGLLLWCRELKSNYFDY (antibody, V domains shown) VL: QDIQMTQSPSSLSAFVGDRVTITCRASQPIDNYLNWYHQKPGKAPKLLIYAASRLQSGVPSRLSGSGFGTDFTLTISSLQPEDFGNYYCQQSYTVPYTFGGGTKVEIR VH: EVQLLESGGGLVQPGGSLRLSCAASGFTFSAYSMIWVRQAPGKGLEWVSYIRPSGGRTTYADSVKGRFTISRDNSKNTLYLQMNSLRAEDTAVYYCARGGLLLWCRELKSNYFDYWGQGTLVTVSSASTKGPSVFPLAPSSKS	No
X67-H04: single point mutation of M142-H08 (P2); HV-CDR3 GGLLLWERELKSNYFDY (antibody, V domains shown) VL: QDIQMTQSPSSLSAFVGDRVTITCRASQPIDNYLNWYHQKPGKAPKLLIYAASRLQSGVPSRLSGSGFGTDFTLTISSLQPEDFGNYYCQQSYTVPYTFGGGTKVEIR VH: EVQLLESGGGLVQPGGSLRLSCAASGFTFSAYSMIWVRQAPGKGLEWVSYIRPSGGRTTYADSVKGRFTISRDNSKNTLYLQMNSLRAEDTAVYYCARGGLLLWERELKSNYFDYWGQGTLVTVSSASTKGPSVFPLAPSSKS	Yes
X67-G09: single point mutation of M142-H08 (P2); HV-CDR3 GGLLLWLRELKSNYFDY (antibody, V domains shown) VL: QDIQMTQSPSSLSAFVGDRVTITCRASQPIDNYLNWYHQKPGKAPKLLIYAASRLQSGVPSRLSGSGFGTDFTLTISSLQPEDFGNYYCQQSYTVPYTFGGGTKVEIR VH: EVQLLESGGGLVQPGGSLRLSCAASGFTFSAYSMIWVRQAPGKGLEWVSYIRPSGGRTTYADSVKGRFTISRDNSKNTLYLQMNSLRAEDTAVYYCARGGLLLWLRELKSNYFDYWGQGTLVTVSSASTKGPSVFPLAPSSKS	Yes
X67-B05: single point mutation of M142-H08 (P2); HV-CDR3 GGLLLWPRELKSNYFDY (antibody, V domains shown) VL: QDIQMTQSPSSLSAFVGDRVTITCRASQPIDNYLNWYHQKPGKAPKLLIYAASRLQSGVPSRLSGSGFGTDFTLTISSLQPEDFGNYYCQQSYTVPYTFGGGTKVEIR VH: EVQLLESGGGLVQPGGSLRLSCAASGFTFSAYSMIWVRQAPGKGLEWVSYIRPSGGRTTYADSVKGRFTISRDNSKNTLYLQMNSLRAEDTAVYYCARGGLLLWPRELKSNYFDYWGQGTLVTVSSASTKGPSVFPLAPSSKS	No
X68-G05: single point mutation of M142-H08 (P3); HV-CDR3 GGLLLSFRELKSNYFDY (antibody, V domains shown) VL: QDIQMTQSPSSLSAFVGDRVTITCRASQPIDNYLNWYHQKPGKAPKLLIYAASRLQSGVPSRLSGSGFGTDFTLTISSLQPEDFGNYYCQQSYTVPYTFGGGTKVEIR VH: EVQLLESGGGLVQPGGSLRLSCAASGFTFSAYSMIWVRQAPGKGLEWVSYIRPSGGRTTYADSVKGRFTISRDNSKNILYLQMNSLRAEDTAVYYCARGGLLLSFRELKSNYFDYWGQGTLVTVSSASTKGPSVFPLAPSSKS	No

Source: US20100183625A1, “Treatment of Mucositis with Kallikrein Inhibitors” (Dyax Corp., priority 2009, published 2010)
